From IntAct's records for PubMed 23481255

B1: ADP-ribose glycohydrolase OARD1 (Homo sapiens), Q9Y530 (parent)
chain: MASSLNEDPEGSRITYVKGDLFACPKTDSLAHCISEDCRMGAGIAVLFKKKFGGVQELLNQQKKSGEVAVLKRDGRYIYYLITKKRASHKPTYENLQKSLEAMKSHCLKNGVTDLSMPRIGCGLDRLQWENVSAMIEEVFEATDIKITVYTL
B2: ADP-ribose glycohydrolase OARD1 (Homo sapiens), Q9Y530 (parent)
chain: B1 chain
partner: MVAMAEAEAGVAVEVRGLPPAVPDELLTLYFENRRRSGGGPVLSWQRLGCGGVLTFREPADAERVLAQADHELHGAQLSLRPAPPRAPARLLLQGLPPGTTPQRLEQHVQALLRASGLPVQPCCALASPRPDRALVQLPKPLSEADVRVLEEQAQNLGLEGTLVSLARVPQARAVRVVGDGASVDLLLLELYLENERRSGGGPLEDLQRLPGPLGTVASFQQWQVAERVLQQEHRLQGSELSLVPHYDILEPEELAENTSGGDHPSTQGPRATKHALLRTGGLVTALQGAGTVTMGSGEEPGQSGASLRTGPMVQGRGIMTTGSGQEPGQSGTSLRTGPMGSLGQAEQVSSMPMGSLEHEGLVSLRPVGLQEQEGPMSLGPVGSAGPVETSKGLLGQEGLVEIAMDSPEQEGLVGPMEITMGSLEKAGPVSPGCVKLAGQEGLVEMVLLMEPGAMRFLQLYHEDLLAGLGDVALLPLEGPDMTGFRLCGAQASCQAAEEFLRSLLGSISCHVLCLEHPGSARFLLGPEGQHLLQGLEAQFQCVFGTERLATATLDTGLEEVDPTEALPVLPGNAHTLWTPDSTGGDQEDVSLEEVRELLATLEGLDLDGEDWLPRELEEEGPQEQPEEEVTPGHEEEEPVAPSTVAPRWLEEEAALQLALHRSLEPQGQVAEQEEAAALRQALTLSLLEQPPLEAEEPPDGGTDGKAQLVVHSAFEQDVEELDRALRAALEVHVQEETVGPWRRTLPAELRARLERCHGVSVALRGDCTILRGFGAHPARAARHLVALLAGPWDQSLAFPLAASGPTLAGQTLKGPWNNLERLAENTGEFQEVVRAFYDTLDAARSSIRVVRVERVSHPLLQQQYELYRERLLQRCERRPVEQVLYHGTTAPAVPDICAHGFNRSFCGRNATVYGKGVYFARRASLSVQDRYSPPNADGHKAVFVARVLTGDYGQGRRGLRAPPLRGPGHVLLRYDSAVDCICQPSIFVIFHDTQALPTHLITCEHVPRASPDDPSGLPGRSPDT

Variants of: B1
Settings: with parp1_human PARP1, P09874
Sequence of parp1_human PARP1, P09874 (P09874 whole entry): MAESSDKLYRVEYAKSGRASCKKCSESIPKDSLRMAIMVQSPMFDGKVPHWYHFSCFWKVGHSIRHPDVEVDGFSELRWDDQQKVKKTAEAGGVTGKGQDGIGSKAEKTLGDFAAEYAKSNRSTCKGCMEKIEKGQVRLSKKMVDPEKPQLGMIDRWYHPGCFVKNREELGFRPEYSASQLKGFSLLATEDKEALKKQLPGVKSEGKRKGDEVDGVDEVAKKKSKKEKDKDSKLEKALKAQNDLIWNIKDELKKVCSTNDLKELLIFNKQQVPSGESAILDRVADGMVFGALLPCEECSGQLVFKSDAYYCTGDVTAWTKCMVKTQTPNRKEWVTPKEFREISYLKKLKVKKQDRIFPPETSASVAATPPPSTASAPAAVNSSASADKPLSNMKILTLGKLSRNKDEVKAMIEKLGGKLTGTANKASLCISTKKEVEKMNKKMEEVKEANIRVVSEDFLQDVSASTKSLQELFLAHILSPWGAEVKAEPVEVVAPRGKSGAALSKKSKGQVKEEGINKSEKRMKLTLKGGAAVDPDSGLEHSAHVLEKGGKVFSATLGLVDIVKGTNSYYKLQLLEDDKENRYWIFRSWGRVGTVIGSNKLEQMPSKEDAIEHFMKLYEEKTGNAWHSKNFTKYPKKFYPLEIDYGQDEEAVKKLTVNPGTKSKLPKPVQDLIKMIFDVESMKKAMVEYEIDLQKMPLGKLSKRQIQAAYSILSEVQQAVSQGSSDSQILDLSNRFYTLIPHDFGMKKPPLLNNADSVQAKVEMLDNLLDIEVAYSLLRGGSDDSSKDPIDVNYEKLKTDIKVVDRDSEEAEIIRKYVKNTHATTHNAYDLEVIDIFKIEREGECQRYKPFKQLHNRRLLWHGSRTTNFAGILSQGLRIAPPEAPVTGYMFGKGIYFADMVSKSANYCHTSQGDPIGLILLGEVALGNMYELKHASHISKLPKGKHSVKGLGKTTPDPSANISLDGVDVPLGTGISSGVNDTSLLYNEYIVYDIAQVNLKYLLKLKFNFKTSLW

effect of a mutation on the interaction | Variant
disrupting interaction | MASSLNEDPEGSRITYVKGDLFACPKTDSLAHCISEDCRMGAGIAVLFKKKFGGVQELLNQQKKSGEVAVLKRDGRYIYYLITAKRASHKPTYENLQKSLEAMKSHCLKNGVTDLSMPRIGCGLDRLQWENVSAMIEEVFEATDIKITVYTL

Variants of: B1
Settings: with parp1_human PARP1, P09874
Remark: another data set of the same source

effect of a mutation on the interaction | Variant
disrupting interaction | MASSLNEDPEGSRITYVKGDLFACPKTDSLAHCISEDCRMGAGIAVLFKKKFGGVQELLNQQKKSGEVAVLKRDGRYIYYLITRKRASHKPTYENLQKSLEAMKSHCLKNGVTDLSMPRIGCGLDRLQWENVSAMIEEVFEATDIKITVYTL

Variants of: B1
Settings: with parp1_human PARP1, P09874
Remark: another data set of the same source

effect of a mutation on the interaction | Variant
disrupting interaction | MASSLNEDPEGSRITYVKGDLFACPKTDSLAHCISEDCRMGAGIAVLFKKKFGGVQELLNQQKKSGEVAVLKRDGRYIYYLITKKRASHKPTYENLQKSLEAMKSHCLKNGVTDLSMPRIGCGLARLQWENVSAMIEEVFEATDIKITVYTL

Variants of: B1
Settings: with parp1_human PARP1, P09874
Remark: another data set of the same source

effect of a mutation on the interaction | Variant
increasing interaction | MASSLNEDPEGSRITYVKGDLFACPKTDSLAHCISEDCRMGAGIAVLFKKKFGGVQELLNQQKKSGEVAVLKRDGRYIYYLITKKRASHKPTYENLQKSLEAMKSHCLKNGVTDLSMPRIGCGLARLQWENVSAMIEEVFEATDIKITVYTL

Variants of: B1
Settings: with parp1_human PARP1, P09874
Remark: another data set of the same source

effect of a mutation on the interaction | Variant
disrupting interaction | MASSLNEDPEGSRITYVKGDLFACPKTDSLAHCISEDCRMGAGIAVLFKKKFGGVQELLNQQKKSGEVAVLKRDGRYIYYLITKKRASHKPTYENLQKSLEAMKSHCLKNGVTDLSMPRIGCELDRLQWENVSAMIEEVFEATDIKITVYTL

Variants of: B2
Settings: with par10_human PARP10, Q53GL7

effect of a mutation on the interaction | Variant
disrupting interaction | MASSLNEDPEGSRITYVKGDLFACPKTDSLAHCISEDCRMGAGIAVLFKKKFGGVQELLNQQKKSGEVAVLKRDGRYIYYLITKKRASHKPTYENLQKSLEAMKSHCLKNGVTDLSMPRIGCGLARLQWENVSAMIEEVFEATDIKITVYTL

Variants of: B2
Settings: with par10_human PARP10, Q53GL7
Remark: another data set of the same source

effect of a mutation on the interaction | Variant
disrupting interaction | MASSLNEDPEGSRITYVKGDLFACPKTDSLAHCISEDCRMGAGIAVLFKKKFGGVQELLNQQKKSGEVAVLKRDGRYIYYLITAKRASHKPTYENLQKSLEAMKSHCLKNGVTDLSMPRIGCGLDRLQWENVSAMIEEVFEATDIKITVYTL
